Consider one substance from US9896488B2.

The experiment concerns the target Fc-tagged extracellular domain of RPTPσ (wild type) (mouse) (UniProt B0V2N1). The experiment is described as follows: ELISA: RPTPσ-Fc on protein G plates, biotinylated aggrecan (5 ug/ml) preincubated with protamine (0-5 ug/ml). The reference is binding without protamine. A general note: An ELISA detects its analyte on a solid surface through an enzyme-linked reagent.

As to “Biotinylated aggrecan (from UniProt P13608)”, the fold increase of binding in the presence of protamine was 2 fold.
